One may read the Kd as a measure of binding affinity in units of concentration. Read a high Kd as weaker binding.

Our source for the Kd values is paper PMC4027189.

Assay [1] addresses H3–H4 (H3 refolded with labeled H4 E63C) (UniProt P61830). Nature of the assay: FRET or BRET. On the technique in general: Bioluminescence resonance energy transfer reports proximity on the nanometre scale.
In assay [2] the target is H2A–H2B (H2A T118C labeled with Alexa-488 refolded with H2B) (UniProt P04911). Nature of the assay: FRET or BRET.
UniProt P04911, sequence (P04911 2-132, chain 1 of 2): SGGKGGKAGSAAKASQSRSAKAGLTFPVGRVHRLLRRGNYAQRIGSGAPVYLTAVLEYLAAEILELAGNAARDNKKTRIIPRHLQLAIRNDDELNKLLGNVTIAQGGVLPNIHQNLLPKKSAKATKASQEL
UniProt P04911, sequence (P02294 2-131 T119C, chain 2 of 2, further chain): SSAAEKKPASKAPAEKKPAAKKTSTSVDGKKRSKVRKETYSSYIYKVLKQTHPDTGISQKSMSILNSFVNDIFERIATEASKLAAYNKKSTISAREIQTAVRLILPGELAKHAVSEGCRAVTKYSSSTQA

As for “Scm3, full length, labeled with Atto-647N at cysteine 41 (from UniProt Q12334 1-223) (natural protein)”, the Kd amounted to 196 nM in assay [1] and 305 nM in assay [2].
